The values below come from PMC5147862 (PLoS ONE, 2016).

B1: RAS association (RA) domain of PLCε, MBP fusion (domain or fragment, human, UniProt Q9P212 2130-2240, looked up)
chain: LSSEEESFFVQVHDVSPEQPRTVIKAPRVSTAQDVIQQTLCKAKYSYSILSNPNPSDYVLLEEVVKDTTNKKTTTPKSSQRVLLDQECVFQAQSKWKGAGKFILKLKEQVQ
notes: human PLCε, RA domain (RA2), aa 2130-2240; also called PLCε-RA2
B2: RAS association (RA) domain of RASSF5, MBP fusion (domain or fragment, human, UniProt Q8WWW0 200-358, looked up)
chain: EETQRPPTLQEIKQKIDSYNTREKNCLGMKLSEDGTYTGFIKVHLKLRRPVTVPAGIRPQSIYDAIKEVNLAATTDKRTSFYLPLDAIKQLHISSTTTVSEVIQGLLKKFMVVDNPQKFALFKRIHKDGQVLFQKLSIADRPLYLRLLAGPDTEVLSFV
notes: human RASSF5, RA domain, aa 200-358; also called RASSF5-RA
B3: RRAS1, mGppNHp-bound (natural protein, human, UniProt P10301 1-218, looked up)
chain: MSSGAASGTGRGRPRGGGPGPGDPPPSETHKLVVVGGGGVGKSALTIQFIQSYFVSDYDPTIEDSYTKICSVDGIPARLDILDTAGQEEFGAMREQYMRAGHGFLLVFAINDRQSFNEVGKLFTQILRVKDRDDFPVVLVGNKADLESQRQVPRSEASAFGASHHVAYFEASAKLRLNVDEAFEQLVRAVRKYQEQELPPSPPSAPRKKGGGCPCVLL
notes: human RRAS1 (R-Ras); Loaded with mGppNHp; That the RAS proteins are the ones made with pGEX is surmised
B4: RRAS2 (or TC21), mGppNHp-bound (natural protein, human, UniProt P62070 1-204, looked up)
chain: MAAAGWRDGSGQEKYRLVVVGGGGVGKSALTIQFIQSYFVTDYDPTIEDSYTKQCVIDDRAARLDILDTAGQEEFGAMREQYMRTGEGFLLVFSVTDRGSFEEIYKFQRQILRVKDRDEFPMILIGNKADLDHQRQVTQEEGQQLARQLKVTYMEASAKIRMNVDQAFHELVRVIRKFQEQECPPSPEPTRKEKDKKGCHCVIF
notes: human RRAS2 (TC21); Loaded with mGppNHp; That the RAS proteins are the ones made with pGEX is surmised; also called RRAS2-mGppNHp

Holding throughout (assay): fluorescence polarisation; MBP-tagged effector domain (0.05-100 μM) titrated to 1 μM RAS-mGppNHp; 50 mM Tris/HCl pH 7.5, 100 mM NaCl, 5 mM MgCl2, 3 mM dithiothreitol, 25°C; quadratic ligand binding equation
What all share (conditions): both partners purified

The target of the assay “RRAS1, mGppNHp-bound” is B3.
Assay [1] has as its target B4.
The target in another assay is T1, HRAS, mGppNHp-bound (human, UniProt P01112 1-189).
T1 construct: human HRAS; Loaded with the fluorescent non-hydrolysable GTP analog mant-GppNHp (mGppNHp); That the RAS proteins are the ones made with pGEX is surmised

Another assay addresses T2, NRAS, mGppNHp-bound (human, UniProt P01111 1-189).
T2 construct: human NRAS; Loaded with mGppNHp; That the RAS proteins are the ones made with pGEX is surmised

The target of assay [2] is T3, RAS binding (RB) domain of PI3Kα, MBP fusion (human, UniProt P42336 169-301).
T3 construct: human PI3Kα, RB domain, aa 169-301; also called PI3Kα-RB
T3 sequence (P42336 169-301): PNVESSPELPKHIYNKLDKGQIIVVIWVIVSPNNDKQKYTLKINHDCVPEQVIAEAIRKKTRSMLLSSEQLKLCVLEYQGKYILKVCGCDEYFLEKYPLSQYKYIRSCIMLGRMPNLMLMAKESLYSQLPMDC

T2 sequence (P01111 whole entry): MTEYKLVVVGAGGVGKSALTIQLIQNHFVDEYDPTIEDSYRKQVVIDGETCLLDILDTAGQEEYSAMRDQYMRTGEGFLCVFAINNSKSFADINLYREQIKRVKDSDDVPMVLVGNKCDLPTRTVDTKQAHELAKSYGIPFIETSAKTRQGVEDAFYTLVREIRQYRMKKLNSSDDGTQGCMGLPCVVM

As for B1, the equilibrium dissociation constant (Kd) – broadly, a measure of binding affinity in units of concentration – stood at 114 µM in the assay with RRAS1, mGppNHp-bound and 145 µM in assay [1].
In the case of B2, the Kd in the assay with RRAS1, mGppNHp-bound stood at 11.5 µM; in assay [1] it was 10 µM; with HRAS, mGppNHp-bound, 0.238 µM; with NRAS, mGppNHp-bound it was 0.442 µM.
B3 registered a dissociation constant Kd in assay [2] of 11 µM.
Same read-out and setting: next, B4: 18.1 µM.
